The chains are these.
B1: Serine/threonine-protein kinase PAK 4 (Homo sapiens), O96013 (parent)
chain: MFGKRKKRVEISAPSNFEHRVHTGFDQHEQKFTGLPRQWQSLIEESARRPKPLVDPACITSIQPGAPKTIVRGSKGAKDGALTLLLDEFENMSVTRSNSLRRDSPPPPARARQENGMPEEPATTARGGPGKAGSRGRFAGHSEAGGGSGDRRRAGPEKRPKSSREGSGGPQESSRDKRPLSGPDVGTPQPAGLASGAKLAAGRPFNTYPRADTDHPSRGAQGEPHDVAPNGPSAGGLAIPQSSSSSSRPPTRARGAPSPGVLGPHASEPQLAPPACTPAAPAVPGPPGPRSPQREPQRVSHEQFRAALQLVVDPGDPRSYLDNFIKIGEGSTGIVCIATVRSSGKLVAVKKMDLRKQQRRELLFNEVVIMRDYQHENVVEMYNSYLVGDELWVVMEFLEGGALTDIVTHTRMNEEQIAAVCLAVLQALSVLHAQGVIHRDIKSDSILLTHDGRVKLSDFGFCAQVSKEVPRRKSLVGTPYWMAPELISRLPYGPEVDIWSLGIMVIEMVDGEPPYFNEPPLKAMKMIRDNLPPRLKNLHKVSPSLKGFLDRLLVRDPAQRATAAELLKHPFLAKAGPPASIVPLMRQNRTR

Variants of B1 are the subject of this experiment. To be noted: with cdc42_human CDC42, P60953.
Chain of cdc42_human CDC42, P60953 (P60953 whole entry, looked up): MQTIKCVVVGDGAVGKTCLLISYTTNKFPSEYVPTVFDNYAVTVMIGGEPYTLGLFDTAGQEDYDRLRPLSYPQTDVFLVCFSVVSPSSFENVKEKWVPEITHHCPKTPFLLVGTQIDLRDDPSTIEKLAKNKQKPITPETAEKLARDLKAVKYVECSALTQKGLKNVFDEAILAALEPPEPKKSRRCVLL
With T60E, the “effect of a mutation on the interaction” value is given as “disrupting interaction”. In the case of R49E, the “effect of a mutation on the interaction” value was “disrupting interaction”. The same measure for R48E: “disrupting interaction”.

Source of the values: IntAct's records for PubMed 22653441.
